# Test results as given in patent US20200115464A1 (Regeneron, published 2020).
# T1: His-tagged human FcγRIIB (human, UniProt P31994 46-217, limits assumed)
# T1 construct: also called human FcyRIIB
# T1 sequence (looked up): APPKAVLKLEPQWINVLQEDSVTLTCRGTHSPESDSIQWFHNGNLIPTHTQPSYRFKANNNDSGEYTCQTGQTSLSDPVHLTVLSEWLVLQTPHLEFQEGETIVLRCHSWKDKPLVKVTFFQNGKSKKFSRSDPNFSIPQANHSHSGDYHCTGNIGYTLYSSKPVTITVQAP
# T2: His-tagged cynomolgus FcγRIIA (cynomolgus monkey, UniProt A0A140HDN0 30-216)
# T2 construct: also called cyno FcyRIIA
# T2 sequence: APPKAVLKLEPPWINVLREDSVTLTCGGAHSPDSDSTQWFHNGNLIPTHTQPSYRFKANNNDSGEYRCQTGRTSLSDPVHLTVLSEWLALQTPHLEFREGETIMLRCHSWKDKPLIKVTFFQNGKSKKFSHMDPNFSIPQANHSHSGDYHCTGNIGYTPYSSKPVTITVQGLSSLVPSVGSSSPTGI
# T3: His-tagged cynomolgus FcγRIIB (cynomolgus monkey, UniProt A0A140HDP4 46-217)
# T3 construct: also called cyno FcyRIIB
# T3 sequence: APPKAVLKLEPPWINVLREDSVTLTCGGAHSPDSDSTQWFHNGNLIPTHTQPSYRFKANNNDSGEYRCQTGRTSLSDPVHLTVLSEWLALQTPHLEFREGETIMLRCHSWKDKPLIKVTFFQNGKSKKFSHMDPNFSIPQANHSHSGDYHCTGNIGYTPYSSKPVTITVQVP
# T4: His-tagged human FcγRIIA (H131) (human, UniProt P12318 36-218, limits assumed)
# T4 construct: also called hFcyRIIA (H131)
# T4 sequence (looked up): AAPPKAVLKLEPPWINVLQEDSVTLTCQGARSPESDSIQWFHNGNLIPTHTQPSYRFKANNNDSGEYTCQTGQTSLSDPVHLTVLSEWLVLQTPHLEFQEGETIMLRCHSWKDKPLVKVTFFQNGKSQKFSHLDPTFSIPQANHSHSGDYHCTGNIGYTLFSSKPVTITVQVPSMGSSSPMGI
# T5: His-tagged human FcγRIIA (R131) (human, UniProt P12318 36-218, limits assumed)
# T5 construct: also called human FcyRIIA (R131)
# T5 sequence (looked up): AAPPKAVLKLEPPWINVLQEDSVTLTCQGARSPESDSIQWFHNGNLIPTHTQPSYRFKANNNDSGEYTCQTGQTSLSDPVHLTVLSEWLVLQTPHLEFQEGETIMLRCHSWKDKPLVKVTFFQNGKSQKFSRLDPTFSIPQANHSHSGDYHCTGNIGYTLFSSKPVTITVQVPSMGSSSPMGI
# T6: human CD20 on cells (Raji, CD3-, CD20+ human B-cell line; B16F10.9/CD20 cells) (human, UniProt P11836 1-297)
# T6 sequence (looked up): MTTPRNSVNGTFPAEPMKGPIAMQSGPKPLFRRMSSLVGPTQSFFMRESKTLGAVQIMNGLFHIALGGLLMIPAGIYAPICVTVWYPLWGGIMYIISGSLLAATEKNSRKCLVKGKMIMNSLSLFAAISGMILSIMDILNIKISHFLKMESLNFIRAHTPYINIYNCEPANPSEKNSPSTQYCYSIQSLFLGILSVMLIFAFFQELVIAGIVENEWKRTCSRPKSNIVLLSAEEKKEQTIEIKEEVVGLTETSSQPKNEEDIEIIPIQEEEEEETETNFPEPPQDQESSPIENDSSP
# Tests used:
# His-tagged human FcγRIIB = target: T1, His-tagged human FcγRIIB; test: SPR steady-state, His-captured FcγR, antibody injected, 25 C
# [1] = target: T2, His-tagged cynomolgus FcγRIIA; test: as above
# [2] = target: T7, His-tagged human FcγRIIIB (human, UniProt O75015 17-200); test: as above
# T7 construct: also called human FcyRIIIB
# [3] = target: T8, His-tagged human FcγRIIIA (F176) (human, UniProt P08637 17-208); test: as above
# T8 construct: also called human FcyRIIIA (F176)
# [4] = target: T3, His-tagged cynomolgus FcγRIIB; test: as above
# [5] = target: T9, His-tagged cynomolgus FcγRIIIA (cynomolgus monkey, UniProt Q8SPW2 17-208, limits assumed); test: as above
# T9 construct: also called cyno FcyRIIIA
# [6] = target: T4, His-tagged human FcγRIIA (H131); test: as above
# [7] = target: T10, His-tagged human FcγRIIIA (V176) (human, UniProt P08637 17-208); test: as above
# T10 construct: also called human FcyRIIIA (V176)
# [8] = target: T5, His-tagged human FcγRIIA (R131); test: as above
# [9] = target: T6, human CD20 on cells (Raji, CD3-, CD20+ …); test: cell-based or functional assay
# His-tagged human FcγRI = target: T11, His-tagged human FcγRI (human, UniProt P12314 16-288); test: SPR (Biacore T200), His-captured human FcγRI, antibody injected, 25 C
# T11 construct: also called human FcRγI; hFcγRI
# Procedure: Briefly, SPR experiments were performed at 25° C. on a Biacore T200 instrument employing a carboxymethyl dextran-coated (CM-5) chip. A mouse monoclonal anti-penta-histidine antibody (GE Healthcare) was immobilized on the surface of the CM-5 sensor chip using standard amine-coupling chemistry. […] Kinetic association (kₐ) and dissociation (kd) rate constants were determined by processing and fitting the data to a 1:1 binding model using Scrubber 2.0 curve fitting software. Binding dissociation equilibrium constants (KD) and dissociative half-lives (t_{1/2}) were calculated from the kinetic rate constants as: KD (M)=kd/kₐ; and t_{1/2}(min)=(ln 2/(60*kd).
# [10] = target: T6, human CD20 on cells (Raji, CD3-, CD20+ …); test: cell-based or functional assay; remark: listed apart in the source
# [11] = target: T6, human CD20 on cells (Raji, CD3-, CD20+ …); test: FACS, serially diluted antibody on Raji cells (CD3-, CD20+)
# Procedure: (§1) FACS data was acquired using the following protocol: Cells at 2×10⁵ per well were incubated with serially diluted antibodies for 30 min on ice. Post incubation, cells were washed and appropriate secondary (Jurkat, RAJI cells) or cocktail of secondary antibodies (for cyno PBMC) was added and incubated for an additional 30 minutes. After incubation, cells were washed, re-suspended in cold PBS containing 1% BSA and analyzed by flow cytometry on a BD FACS Canto II. Jurkat and Raji cells were gated by side and forward scatters, while cynomolgus T cells were also gated as a CD2+CD4+ population. The EC₅₀s for cell binding titration were determined using Prism software with values calculated using a 4-parameter non-linear regression analysis.
# [12] = target: T12, cynomolgus CD3 on T cells of cynomolgus PBMCs (mkT cells) (cynomolgus monkey); test: FACS, serially diluted antibody on cynomolgus PBMC T cells (mkT cells)
# T12 construct: whole, on cells; also called cynomolgus T cells; monkey T-cells
# Procedure: as §1
# [13] = target: T13, human CD3 on Jurkat cells (CD3+, CD20- human T-cell line) (human, UniProt P07766 23-207; P04234 22-171; P09693 23-182; P20963 22-164); test: FACS, serially diluted antibody on Jurkat cells (CD3+, CD20-)
# T13 construct: whole, on cells; SP34 is said to react with the epsilon chain
# Procedure: as §1
# [14] = target: T6, human CD20 on cells (Raji, CD3-, CD20+ …); test: cell-based or functional assay; remark: listed apart in the source
# T7 sequence (O75015 17-200 limits assumed): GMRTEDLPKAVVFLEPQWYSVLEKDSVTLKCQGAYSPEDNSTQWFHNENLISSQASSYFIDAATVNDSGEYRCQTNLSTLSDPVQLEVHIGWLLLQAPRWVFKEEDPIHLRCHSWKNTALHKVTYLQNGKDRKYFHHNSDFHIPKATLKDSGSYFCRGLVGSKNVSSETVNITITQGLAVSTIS
# T10 sequence (P08637 17-208 F176V limits assumed): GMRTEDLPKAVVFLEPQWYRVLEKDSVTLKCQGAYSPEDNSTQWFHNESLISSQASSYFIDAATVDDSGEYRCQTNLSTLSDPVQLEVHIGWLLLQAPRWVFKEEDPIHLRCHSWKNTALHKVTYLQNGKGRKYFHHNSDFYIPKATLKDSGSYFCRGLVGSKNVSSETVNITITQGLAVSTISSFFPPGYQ
# T9 sequence (Q8SPW2 17-208 limits assumed): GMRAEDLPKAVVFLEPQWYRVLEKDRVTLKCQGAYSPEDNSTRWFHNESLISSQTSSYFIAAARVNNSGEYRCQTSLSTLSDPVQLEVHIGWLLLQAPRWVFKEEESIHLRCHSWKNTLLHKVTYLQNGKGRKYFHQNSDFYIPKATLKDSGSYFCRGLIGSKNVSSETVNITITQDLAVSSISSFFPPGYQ
# T8 sequence (P08637 17-208 limits assumed): as the sequence (P08637 17-208 F176V limits assumed) above, with V160F counted along it
# T11 sequence (P12314 16-288 limits assumed): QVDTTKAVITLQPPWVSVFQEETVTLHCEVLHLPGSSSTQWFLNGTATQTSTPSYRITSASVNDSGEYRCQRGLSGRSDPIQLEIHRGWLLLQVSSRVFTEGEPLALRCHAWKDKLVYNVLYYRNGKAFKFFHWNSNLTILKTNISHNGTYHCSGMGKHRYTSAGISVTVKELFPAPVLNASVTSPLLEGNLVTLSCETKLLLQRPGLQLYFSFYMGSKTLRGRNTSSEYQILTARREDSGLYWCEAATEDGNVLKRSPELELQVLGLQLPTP
Binder,Kd (His-tagged human FcγRIIB) [nM],Kd [1] [nM],binding result [2],binding result [3],Kd [4] [nM],Kd [5] [nM],Kd [6] [nM],binding result [7],Kd [8] [nM],"Raji Cytotoxicity Activated Human T-cells [M] (EC50, calcein release) [9]","Raji Cytotoxicity Activated Monkey T-cells [M] (EC50, calcein release) [9]",binding result (His-tagged human FcγRI),"% Survival B16F10.9/CD20 cells [M] (EC50, target-specific killing, FACS) [10]",EC50 [11] [nM],EC50 [12] [µM],EC50 [13] [nM],"Raji Cytotoxicity Human T-cells [M] (EC50, calcein release) [14]","Raji Cytotoxicity Monkey T-cells [M] (EC50, calcein release) [14]"
"Antibody 1 (CD3×CD20-chimericFc bispecific antibody) (bispecific antibody, human IgG4 S228P, Only the light chain variable region is tied to this antibody; also called Ab 1; Ab1) heavy 1: EVQLVESGGGLVQPGRSLRLSCVASGFTFNDYAMHWVRQAPGKGLEWVSVISWNSDSIGYADSVKGRFTISRDNAKNSLYLQMHSLRAEDTALYYCAKDNHYGSGSYYYYQYGMDVWGQGTTVTVSSASTKGPSVFPLAPCSRSTSESTAALGCLVKDYFPEPVTVSWNSGALTSGVHTFPAVLQSSGLYSLSSVVTVPSSSLGTKTYTCNVDHKPSNTKVDKRVESKYGPPCPPCPAPPVAGPSVFLFPPKPKDTLMISRTPEVTCVVVDVSQEDPEVQFNWYVDGVEVHNAKTKPREEQFNSTYRVVSVLTVLHQDWLNGKEYKCKVSNKGLPSSIEKTISKAKGQPREPQVYTLPPSQEEMTKNQVSLTCLVKGFYPSDIAVEWESNGQPENNYKTTPPVLDSDGSFFLYSRLTVDKSRWQEGNVFSCSVMHEALHNHYTQKSLSLSLGK heavy 2: EVQLVESGGGLVQPGRSLRLSCAASGFTFDDYTMHWVRQAPGKGLEWVSGISWNSGSIGYADSVKGRFTISRDNAKKSLYLQMNSLRAEDTALYYCAKDNSGYGHYYYGMDVWGQGTTVTVASASTKGPSVFPLAPCSRSTSESTAALGCLVKDYFPEPVTVSWNSGALTSGVHTFPAVLQSSGLYSLSSVVTVPSSSLGTKTYTCNVDHKPSNTKVDKRVESKYGPPCPPCPAPPVAGPSVFLFPPKPKDTLMISRTPEVTCVVVDVSQEDPEVQFNWYVDGVEVHNAKTKPREEQFNSTYRVVSVLTVLHQDWLNGKEYKCKVSNKGLPSSIEKTISKAKGQPREPQVYTLPPSQEEMTKNQVSLTCLVKGFYPSDIAVEWESNGQPENNYKTTPPVLDSDGSFFLYSRLTVDKSRWQEGNVFSCSVMHEALHNRFTQKSLSLSLGK VL: EIVMTQSPATLSVSPGERATLSCRASQSVSSNLAWYQQKPGQAPRLLIYGASTRATGIPARFSGSGSGTEFTLTISSLQSEDFAVYYCQHYINWPLTFGGGTKVEIKR",1230,231,no binding,no binding,139,663,120,no binding,193,2.5e-11,9.1e-12,no binding,1.95e-11,,,,,
"Antibody 2 (CD3×CD20-chimericFc bispecific antibody) (bispecific antibody, human IgG1, also called Ab 2) heavy 1: EVQLVESGGGLVQPGRSLRLSCVASGFTFNDYAMHWVRQAPGKGLEWVSVISWNSDSIGYADSVKGRFTISRDNAKNSLYLQMHSLRAEDTALYYCAKDNHYGSGSYYYYQYGMDVWGQGTTVTVSSASTKGPSVFPLAPSSKSTSGGTAALGCLVKDYFPEPVTVSWNSGALTSGVHTFPAVLQSSGLYSLSSVVTVPSSSLGTQTYICNVNHKPSNTKVDKKVEPKSCDKTHTCPPCPAPPVAGPSVFLFPPKPKDTLMISRTPEVTCVVVDVSQEDPEVQFNWYVDGVEVHNAKTKPREEQFNSTYRVVSVLTVLHQDWLNGKEYKCKVSNKGLPSSIEKTISKAKGQPREPQVYTLPPSRDELTKNQVSLTCLVKGFYPSDIAVEWESNGQPENNYKTTPPVLDSDGSFFLYSKLTVDKSRWQQGNVFSCSVMHEALHNHYTQKSLSLSPGK heavy 2: EVQLVESGGGLVQPGRSLRLSCAASGFTFDDYTMHWVRQAPGKGLEWVSGISWNSGSIGYADSVKGRFTISRDNAKKSLYLQMNSLRAEDTALYYCAKDNSGYGHYYYGMDVWGQGTTVTVASASTKGPSVFPLAPSSKSTSGGTAALGCLVKDYFPEPVTVSWNSGALTSGVHTFPAVLQSSGLYSLSSVVTVPSSSLGTQTYICNVNHKPSNTKVDKKVEPKSCDKTHTCPPCPAPPVAGPSVFLFPPKPKDTLMISRTPEVTCVVVDVSQEDPEVQFNWYVDGVEVHNAKTKPREEQFNSTYRVVSVLTVLHQDWLNGKEYKCKVSNKGLPSSIEKTISKAKGQPREPQVYTLPPSRDELTKNQVSLTCLVKGFYPSDIAVEWESNGQPENNYKTTPPVLDSDGSFFLYSKLTVDKSRWQQGNVFSCSVMHEALHNRFTQKSLSLSPGK VL: EIVMTQSPATLSVSPGERATLSCRASQSVSSNLAWYQQKPGQAPRLLIYGASTRATGIPARFSGSGSGTEFTLTISSLQSEDFAVYYCQHYINWPLTFGGGTKVEIKR",2330,235,no binding,no binding,146,424,117,no binding,205,,,no binding,,,,,,
"(Control) Antibody 4, CD3×CD20 antibody-wild-type Fc (wtFc) (bispecific antibody, human IgG1, Same variable regions as Antibody 1 and Antibody 2, wild-type IgG1 CH; also called Control Ab 4; Control 4) heavy 1: not shown heavy 2: not shown VL: EIVMTQSPATLSVSPGERATLSCRASQSVSSNLAWYQQKPGQAPRLLIYGASTRATGIPARFSGSGSGTEFTLTISSLQSEDFAVYYCQHYINWPLTFGGGTKVEIKR",,,,,,,,,,1.57e-11,1.73e-12,,1.28e-11,59.9,8.74,38.5,5.63e-11,1.27e-12
